Each block holds one binder with its values, some of them ahead of it.
B5: his6-Vam3 (full length), His6-tagged Qa SNARE (natural protein, S. cerevisiae, UniProt Q12241 1-283, looked up)
chain: MSFFDIEAQSSKGNSQQEPQFSTNQKTKELSNLIETFAEQSRVLEKECTKIGSKRDSKELRYKIETELIPNCTSVRDKIESNILIHQNGKLSADFKNLKTKYQSLQQSYNQRKSLFPLKTPISPGTSKERKDIHPRTEAVRQDPESSYISIKVNEQSPLLHNEGQHQLQLQEEQEQQQQGLSQEELDFQTIIHQERSQQIGRIHTAVQEVNAIFHQLGSLVKEQGEQVTTIDENISHLHDNMQNANKQLTRADQHQRDRNKCGKVTLIIIIVVCMVVLLAVLS
notes: Vam3, vacuolar Qa-SNARE, S. cerevisiae, full length; A 36 amino acyl linker stands between the his6 tag and the N-terminus (Izawa et al., 2012, PMID 22174414); also called His6-Qa; source: E. coli, purified; not shown: His6 (with a 36 amino acyl linker), N-terminal, kept

What was measured:
Settings in all cases: both partners purified
[1] = biological target: T1, Qa-SNARE Vam3, full-length, wild-type (S. cerevisiae, UniProt Q12241 1-283); assay: pull-down; GST-tagged R at 4 µM mixed with 4 µM of the other indicated full-length SNAREs in 20 mM HEPES-NaOH pH 7.4, 150 mM NaCl, 10% glycerol, 100 mM ß-octylglucoside; 1 hr 4°C; glutathione agarose 4B; Coomassie-stained gel
T1 construct: Vam3, vacuolar Qa-SNARE, S. cerevisiae, full length; Isolated as GST-Qa (Mima et al., 2008); also called GST-Qa; source: E. coli, purified; reconstituted into proteoliposomes
T1 sequence (looked up): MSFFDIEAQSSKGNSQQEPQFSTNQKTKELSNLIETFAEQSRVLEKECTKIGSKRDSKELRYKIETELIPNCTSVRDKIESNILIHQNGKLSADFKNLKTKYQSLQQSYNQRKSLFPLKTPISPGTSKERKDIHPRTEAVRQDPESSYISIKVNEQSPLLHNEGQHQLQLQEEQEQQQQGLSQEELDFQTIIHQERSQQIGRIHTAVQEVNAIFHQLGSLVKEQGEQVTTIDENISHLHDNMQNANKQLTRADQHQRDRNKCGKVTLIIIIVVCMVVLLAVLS

[2] = biological target: T1, Qa-SNARE Vam3, full-length, wild-type; assay: co-IP; Ypt7/R and Ypt7/QaQb proteoliposomes incubated 33 min with or without 50 nM HOPS and 4 μM Qc; solubilised in modified RIPA buffer with 5 μM GST-R; precipitated with anti-Qa antibody on protein A magnetic beads, 4°C 2 hr; immunoblot for R
[3] = biological target: B5; assay: pull-down; his6-tagged Qa or his6-tagged Qb at 4 µM mixed with 4 µM of the other indicated full-length SNAREs in 20 mM HEPES-NaOH pH 7.4, 150 mM NaCl, 10% glycerol, 100 mM ß-octylglucoside, 20 mM imidazole; 1 hr 4°C; nickel-NTA agarose; Coomassie-stained gel
[4] = biological target: T1, Qa-SNARE Vam3, full-length, wild-type; assay: as above
[5] = biological target: T2, Qc-SNARE Vam7, full-length, wild-type (inherently water-soluble) (S. cerevisiae, UniProt P32912 1-316); assay: as above
T2 construct: Vam7, vacuolar Qc-SNARE, S. cerevisiae, full length; source: E. coli, purified
T2 sequence (looked up): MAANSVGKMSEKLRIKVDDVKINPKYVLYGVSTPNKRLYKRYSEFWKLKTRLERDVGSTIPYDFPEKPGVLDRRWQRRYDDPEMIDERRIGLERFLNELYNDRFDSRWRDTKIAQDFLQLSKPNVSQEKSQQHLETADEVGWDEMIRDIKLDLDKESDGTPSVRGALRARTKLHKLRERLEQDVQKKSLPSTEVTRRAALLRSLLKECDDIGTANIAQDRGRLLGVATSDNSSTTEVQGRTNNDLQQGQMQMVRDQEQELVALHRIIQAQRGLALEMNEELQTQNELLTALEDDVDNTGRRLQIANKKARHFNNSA

B1: GST-Nyv1, GST-tagged full-length R SNARE (natural protein, S. cerevisiae, UniProt Q12255 1-253, looked up)
chain: MKRFNVSYVEVIKNGETISSCFQPFQKNENYGTITSANEQITPVIFHNLIMDMVLPKVVPIKGNKVTKMSMNLIDGFDCFYSTDDHDPKTVYVCFTLVDMPKILPIRILSGLQEYESNATNELLSSHVGQILDSFHEELVEYRNQTLNSSGNGQSSNGNGQNTISDIGDATEDQIKDVIQIMNDNIDKFLERQERVSLLVDKTSQLNSSSNKFRRKAVNIKEIMWWQKVKNITLLTFTIILFVSAAFMFFYLW
notes: Nyv1, vacuolar R-SNARE, S. cerevisiae, full length, cloned into pGST parallel1; Vector pGST parallel1 (Sheffield et al., 1999), BamHI/SalI; also called GST-R; GST-tagged R SNARE; source: E. coli Rosetta(DE3)pLysS, purified (glutathione-Sepharose 4B, in β-octylglucoside)
- binding result [1]: binds

Binder: B5
- binding result [5]: binds

Next, values leading:

- binding result [2]: binds
- binding result [3]: binds
B2: R-SNARE Nyv1, full-length, wild-type, untagged (natural protein, S. cerevisiae, UniProt Q12255 1-253, looked up)
chain: MKRFNVSYVEVIKNGETISSCFQPFQKNENYGTITSANEQITPVIFHNLIMDMVLPKVVPIKGNKVTKMSMNLIDGFDCFYSTDDHDPKTVYVCFTLVDMPKILPIRILSGLQEYESNATNELLSSHVGQILDSFHEELVEYRNQTLNSSGNGQSSNGNGQNTISDIGDATEDQIKDVIQIMNDNIDKFLERQERVSLLVDKTSQLNSSSNKFRRKAVNIKEIMWWQKVKNITLLTFTIILFVSAAFMFFYLW
notes: Nyv1, vacuolar R-SNARE, S. cerevisiae, full length; source: E. coli, purified; buffer exchanged into β-octylglucoside; reconstituted into proteoliposomes

- binding result [4]: binds
B3: his6-Vti1 (full length), his6-tagged Qb SNARE (natural protein, S. cerevisiae, UniProt Q04338 1-217, looked up)
chain: MSSLLISYESDFKTTLEQAKASLAEAPSQPLSQRNTTLKHVEQQQDELFDLLDQMDVEVNNSIGDASERATYKAKLREWKKTIQSDIKRPLQSLVDSGDRDRLFGDLNASNIDDDQRQQLLSNHAILQKSGDRLKDASRIANETEGIGSQIMMDLRSQRETLENARQTLFQADSYVDKSIKTLKTMTRRLVANKFISYAIIAVLILLILLVLFSKFK
notes: Vti1, vacuolar Qb-SNARE, S. cerevisiae, full length; A 36 amino acyl linker stands between the his6 tag and the N-terminus (Izawa et al., 2012, PMID 22174414); also called his6-Qb; source: E. coli, purified; not shown: His6 (with a 36 amino acyl linker), N-terminal, kept

- binding result [3]: binds
B4: Qb-SNARE Vti1, full-length, wild-type (natural protein, S. cerevisiae, UniProt Q04338 1-217, looked up)
chain: MSSLLISYESDFKTTLEQAKASLAEAPSQPLSQRNTTLKHVEQQQDELFDLLDQMDVEVNNSIGDASERATYKAKLREWKKTIQSDIKRPLQSLVDSGDRDRLFGDLNASNIDDDQRQQLLSNHAILQKSGDRLKDASRIANETEGIGSQIMMDLRSQRETLENARQTLFQADSYVDKSIKTLKTMTRRLVANKFISYAIIAVLILLILLVLFSKFK
notes: Vti1, vacuolar Qb-SNARE, S. cerevisiae, full length; the text names it Qb without a tag; also called GST-Qb; source: E. coli, purified; buffer exchanged into β-octylglucoside; reconstituted into proteoliposomes
